Assay [1] addresses HA of Ft. Monmouth influenza virus (on virions) (influenza virus strain Ft. Monmouth). Description: cell-based or functional assay.
For assay [2] the target is unchanged. Description: cell-based or functional assay. The source holds these as a separate data set.

Read-outs that look alike come from different tables or passages of the source.

B1: HB1.6928.2.3 (designed binder)
chain: CIEQSFTTLFACQTAAEIWRAFGYTVKIMVDNGNCRLHVC
modifications: not checked
Regarding B1, the EC50 values for inhibition of viral replication in vitro in assay [1] turned out to be 0.02 ng/mL.

B2: CS15990 A13_r31_TAWQT Thr-40-Thr (designed binder)
chain: TIEQSFTTLFAAQTAAEIWRAFGYTVKIMQDNGNWRLHVT
In the case of B2, in assay [2], the EC50 values for inhibition of viral replication in vitro is 2 ng/mL.

For the origin of these results see patent US20200017552A1.
